Target: the molecule itself
Experiment: SEC

B1: Schistosoma mansoni peroxiredoxin I (thioredoxin peroxidase I), reduced (enzyme)
chain: MVLLPNRPAPEFKGQAVINGEFKEICLKDYRGKYVVLFFYPADFTFVCPTEIIAFSDQVEEFNSRNCQVIACSTDSQYSHLAWDNLDRKSGGLGHMKIPLLADRKQEISKAYGVFDEEDGNAFRGLFIIDPNGILRQITINDKPVGRSVDETLRLLDAFQFVEKHGEVCPVNWKRGQHGIKVNQK
- stoichiometry N: 10

From paper PMC3299984 (Structure(London, England:1993), 2012)
